The results in this text go back to US20160176970A1 (published 2016).

This assay addresses T1, pig α2β1 integrin (pig, UniProt F1SMF4 28-1178; Q9GLP0 21-798).
T1 construct: whole, on cells; Tested with whole blood
In words: FACS on whole blood, PE-coupled goat anti-mouse IgG.

B1: anti-α2 integrin mAb purified from hybridoma supernatant (murine) (antibody, mouse IgG2a, kappa)
light: NIVLTQSPASLAVSLGQRATISCRASESVESYGNSFIYWYQQKPGQAPKLLIYLASNLASGVPARFSGSGSRTDFTLTIDPVEADDAATYYCQQNNEDPYTFGGGTKLEIKRADAAPTVSIFPPSSEQLTSGGASVVCFLNNFYPKDINVKWKIDGSERQNGVLNSWTDQDSKDSTYSMSSTLTLTKDEYERHNSYTCEATHKTSTSPIVKSFNRNEC
heavy: QVQLHQPGAELVKPGAPVKLSCKASGYTFTSYWMNWVKQRPGRGLEWIGRIDPSDSETHYNQKFKDKATLTVDKSSSTAYIQLSSLTSEDSAVYYCAKVGRGYFDYWGQGTTLTVSSAKTTAPSVYPLAPVCGDTTGSSVTLGCLVKGYFPEPVTLTWNSGSLSSGVHTFPAVLQSDLYTLSSSVTVTSSTWPSQSITCNVAHPASSTKVDKKIEPRGPTIKPCPPCKCPAPNLLGGPSVFIFPPKIKDVLMISLSPIVTCVVVDVSEDDPDVQISWFVNNVEVHTAQTQTHREDYNSTLRVVSALPIQHQDWMSGKEFKCKVNNKDLPAPIERTISKPKGSVRAPQVYVLPPPEEEMTKKQVTLTCMVTDFMPEDIYVEWTNNGKTELNYKNTEPVLDSDGSYFMYSKLRVEKKNWVERNSYSCSVVHEGLHNHHTTKSFSRTPGK
notes: also called α2 mAb from hybridoma supernatant; anti-α2 integrin monoclonal mouse antibody
In the case of B1, the binding result is listed as “no binding”.
